Data reported in US20260258092A1.
Several values for one entry are separate records, joined by “and”; a condition that tells them apart may be missing. Equal values may be shown once.

Experiments:
[1] = biological target: dAb, a domain antibody comprising the variable light chain; experiment: frontal analysis on a membrane disc, run 1
[2] = biological target: dAb, a domain antibody comprising the variable light chain; experiment: frontal analysis on a membrane disc, run 2
[3] = biological target: Trastuzumab; experiment: frontal analysis on a membrane disc, load at 10 mL/min, run 1
[4] = biological target: Trastuzumab; experiment: frontal analysis on a membrane disc, load at 10 mL/min, run 3
[5] = biological target: Trastuzumab; experiment: frontal analysis on a membrane disc, blank run between runs, run 1
[6] = biological target: Trastuzumab; experiment: frontal analysis on a membrane disc, blank run between runs, run 2
[7] = biological target: Trastuzumab; experiment: frontal analysis on a membrane disc, blank run between runs, average
[8] = biological target: dAb, a domain antibody comprising the variable light chain; experiment: frontal analysis on a membrane disc, run 1, average of Test 1 and Test 2
[9] = biological target: dAb, a domain antibody comprising the variable light chain; experiment: frontal analysis on a membrane disc, run 2, average of Test 1 and Test 2
[10] = biological target: Trastuzumab; experiment: frontal analysis on a membrane disc, load at 10 mL/min, average of runs 1-4
[11] = biological target: dAb, a domain antibody comprising the variable light chain; experiment: frontal analysis on a membrane disc, re-run after CIP with 0.1 M NaOH, average; details: test 1, without preceding CIP wash
[12] = biological target: Trastuzumab; experiment: frontal analysis on a membrane disc, load at 10 mL/min, run 2 (no blank run before)
[13] = biological target: Trastuzumab; experiment: frontal analysis on a membrane disc, load at 10 mL/min, run 4 (no blank run before)

## kappa light chain-binding ligand (multimer of alkali-stabilized Finegoldia magna Protein L domains) covalently coupled to a convection-based fibrous support (prototype separation matrix) (designed binder)
[1]
  Qb10% (dynamic binding capacity at 10% breakthrough): 12.8 mg/mL and 13 mg/mL
[2]
  Qb10% (dynamic binding capacity at 10% breakthrough): 9.41 mg/mL and 10.5 mg/mL
[3]
  Qb10% (dynamic binding capacity at 10% breakthrough): 17.3 mg/mL and 22 mg/mL
[4]
  Qb10% (dynamic binding capacity at 10% breakthrough): 15.9 mg/mL and 21.8 mg/mL
[5]
  Qb10% (dynamic binding capacity at 10% breakthrough): 15.4 mg/mL and 21.4 mg/mL
[6]
  Qb10% (dynamic binding capacity at 10% breakthrough): 15.5 mg/mL and 21.4 mg/mL
[7]
  Qb10% (average of runs): 15.4 mg/mL and 21.4 mg/mL
[8]
  Average of Qb10%: 12.9 mg/mL
[9]
  Average of Qb10%: 9.98 mg/mL
[10]
  Qb10% (average of runs): 19.6 mg/mL and 14.1 mg/mL
[11]
  Qb10% (average of runs): 10.2 mg/mL
[12]
  Qb10% (dynamic binding capacity at 10% breakthrough): 12.3 mg/mL and 17.8 mg/mL
[13]
  Qb10% (dynamic binding capacity at 10% breakthrough): 10.8 mg/mL and 16.8 mg/mL
